According to IntAct's records for PubMed 35512704:

B1: Speckle-type POZ protein (Homo sapiens), O43791 (parent)
chain: MSRVPSPPPPAEMSSGPVAESWCYTQIKVVKFSYMWTINNFSFCREEMGEVIKSSTFSSGANDKLKWCLRVNPKGLDEESKDYLSLYLLLVSCPKSEVRAKFKFSILNAKGEETKAMESQRAYRFVQGKDWGFKKFIRRDFLLDEANGLLPDDKLTLFCEVSVVQDSVNISGQNTMNMVKVPECRLADELGGLWENSRFTDCCLCVAGQEFQAHKAILAARSPVFSAMFEHEMEESKKNRVEINDVEPEVFKEMMCFIYTGKAPNLDKMADDLLAAADKYALERLKVMCEDALCSNLSVENAAEILILADLHSADQLKTQAVDFINYHASDVLETSGWKSMVVSHPHLVAEAYRSLASAQCPFLGPPRKRLKQS
partner: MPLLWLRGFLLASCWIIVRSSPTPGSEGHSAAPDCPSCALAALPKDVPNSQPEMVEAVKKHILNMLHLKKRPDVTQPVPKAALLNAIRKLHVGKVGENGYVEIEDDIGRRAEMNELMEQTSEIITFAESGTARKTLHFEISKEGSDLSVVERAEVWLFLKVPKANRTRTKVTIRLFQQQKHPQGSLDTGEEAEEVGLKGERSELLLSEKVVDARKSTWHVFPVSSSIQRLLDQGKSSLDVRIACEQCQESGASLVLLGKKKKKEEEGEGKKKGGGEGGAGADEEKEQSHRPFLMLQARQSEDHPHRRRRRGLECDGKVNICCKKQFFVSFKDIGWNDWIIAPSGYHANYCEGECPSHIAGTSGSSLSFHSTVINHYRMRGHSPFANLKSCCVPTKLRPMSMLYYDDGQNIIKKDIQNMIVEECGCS
B2: Speckle-type POZ protein (Homo sapiens), O43791 (parent)
chain: B1 chain
partner: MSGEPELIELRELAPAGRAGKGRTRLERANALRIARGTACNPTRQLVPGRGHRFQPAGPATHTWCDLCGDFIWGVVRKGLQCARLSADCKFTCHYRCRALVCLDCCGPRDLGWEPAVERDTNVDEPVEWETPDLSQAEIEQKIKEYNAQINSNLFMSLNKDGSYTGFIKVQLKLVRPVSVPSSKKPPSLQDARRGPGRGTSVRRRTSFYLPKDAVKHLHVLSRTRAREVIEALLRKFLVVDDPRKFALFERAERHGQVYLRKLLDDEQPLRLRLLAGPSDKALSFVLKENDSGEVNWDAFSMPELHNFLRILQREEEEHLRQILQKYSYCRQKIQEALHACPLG
B3: Speckle-type POZ protein (Homo sapiens), O43791 (parent)
chain: B1 chain
partner: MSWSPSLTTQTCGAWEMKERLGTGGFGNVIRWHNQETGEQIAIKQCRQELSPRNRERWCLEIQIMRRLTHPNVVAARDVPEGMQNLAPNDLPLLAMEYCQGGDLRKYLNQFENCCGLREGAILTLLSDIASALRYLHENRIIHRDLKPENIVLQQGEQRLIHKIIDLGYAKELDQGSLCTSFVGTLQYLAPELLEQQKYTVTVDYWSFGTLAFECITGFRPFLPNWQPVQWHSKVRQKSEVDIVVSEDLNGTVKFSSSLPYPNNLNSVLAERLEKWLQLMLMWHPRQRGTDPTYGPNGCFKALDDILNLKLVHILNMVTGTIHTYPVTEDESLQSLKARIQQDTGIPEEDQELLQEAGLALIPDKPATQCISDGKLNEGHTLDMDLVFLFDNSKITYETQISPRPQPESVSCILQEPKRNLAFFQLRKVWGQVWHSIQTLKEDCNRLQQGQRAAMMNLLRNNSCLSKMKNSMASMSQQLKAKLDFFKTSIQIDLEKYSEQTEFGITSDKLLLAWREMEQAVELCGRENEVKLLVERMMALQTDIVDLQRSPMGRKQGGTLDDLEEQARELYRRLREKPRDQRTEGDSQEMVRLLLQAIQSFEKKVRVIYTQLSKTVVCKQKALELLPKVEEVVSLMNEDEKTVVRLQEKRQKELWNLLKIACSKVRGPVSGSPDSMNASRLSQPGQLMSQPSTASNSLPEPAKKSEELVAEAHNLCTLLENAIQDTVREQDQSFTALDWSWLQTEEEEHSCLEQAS
B4: Speckle-type POZ protein (Homo sapiens), O43791 (parent)
chain: B1 chain
partner: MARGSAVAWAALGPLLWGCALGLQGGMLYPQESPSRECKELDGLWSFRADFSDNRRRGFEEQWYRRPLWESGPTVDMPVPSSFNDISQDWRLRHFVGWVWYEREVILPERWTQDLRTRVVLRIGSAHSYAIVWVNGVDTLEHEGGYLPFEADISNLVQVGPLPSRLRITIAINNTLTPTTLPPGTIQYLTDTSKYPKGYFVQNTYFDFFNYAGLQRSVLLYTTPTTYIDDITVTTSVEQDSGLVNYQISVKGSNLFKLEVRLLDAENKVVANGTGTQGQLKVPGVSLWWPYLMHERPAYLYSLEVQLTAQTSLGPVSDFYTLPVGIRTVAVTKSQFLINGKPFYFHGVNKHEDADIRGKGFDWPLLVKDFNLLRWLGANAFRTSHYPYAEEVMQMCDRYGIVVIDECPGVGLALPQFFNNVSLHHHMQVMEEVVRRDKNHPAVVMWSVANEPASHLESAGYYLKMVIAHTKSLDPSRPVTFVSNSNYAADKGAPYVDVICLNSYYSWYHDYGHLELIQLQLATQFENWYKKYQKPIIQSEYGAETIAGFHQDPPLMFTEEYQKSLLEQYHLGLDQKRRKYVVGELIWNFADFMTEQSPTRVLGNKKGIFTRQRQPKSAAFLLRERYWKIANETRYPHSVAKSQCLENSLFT
B5: Speckle-type POZ protein (Homo sapiens), O43791 (parent)
chain: B1 chain
partner: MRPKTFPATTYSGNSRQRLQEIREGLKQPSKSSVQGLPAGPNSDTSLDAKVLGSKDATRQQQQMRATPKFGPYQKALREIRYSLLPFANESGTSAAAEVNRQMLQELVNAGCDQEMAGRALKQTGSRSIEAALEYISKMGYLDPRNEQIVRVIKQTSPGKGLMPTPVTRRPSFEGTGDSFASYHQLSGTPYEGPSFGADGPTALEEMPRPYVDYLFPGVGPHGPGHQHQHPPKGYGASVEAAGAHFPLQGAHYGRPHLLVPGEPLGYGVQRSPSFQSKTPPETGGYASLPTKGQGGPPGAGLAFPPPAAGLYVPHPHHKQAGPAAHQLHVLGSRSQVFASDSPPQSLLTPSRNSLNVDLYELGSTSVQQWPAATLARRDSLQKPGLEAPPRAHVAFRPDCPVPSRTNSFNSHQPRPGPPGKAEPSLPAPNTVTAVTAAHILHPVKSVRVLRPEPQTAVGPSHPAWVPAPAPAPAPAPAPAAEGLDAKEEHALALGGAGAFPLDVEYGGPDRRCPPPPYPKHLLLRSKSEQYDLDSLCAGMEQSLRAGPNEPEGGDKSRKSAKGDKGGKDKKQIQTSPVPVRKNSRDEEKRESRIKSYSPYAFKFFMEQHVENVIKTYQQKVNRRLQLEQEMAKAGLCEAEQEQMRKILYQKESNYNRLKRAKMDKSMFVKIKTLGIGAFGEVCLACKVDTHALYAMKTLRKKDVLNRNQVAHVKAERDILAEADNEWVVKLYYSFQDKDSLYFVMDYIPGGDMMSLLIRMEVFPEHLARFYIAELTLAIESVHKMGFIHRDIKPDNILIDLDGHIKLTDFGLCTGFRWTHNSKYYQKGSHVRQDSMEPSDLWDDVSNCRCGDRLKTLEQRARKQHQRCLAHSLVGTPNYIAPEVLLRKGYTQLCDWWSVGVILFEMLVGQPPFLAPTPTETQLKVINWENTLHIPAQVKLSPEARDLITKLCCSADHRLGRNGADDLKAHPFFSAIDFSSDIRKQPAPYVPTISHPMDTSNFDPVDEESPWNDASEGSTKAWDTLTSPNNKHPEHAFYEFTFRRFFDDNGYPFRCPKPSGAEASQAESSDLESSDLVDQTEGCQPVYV
B6: Speckle-type POZ protein (Homo sapiens), O43791 (parent)
chain: B1 chain
partner: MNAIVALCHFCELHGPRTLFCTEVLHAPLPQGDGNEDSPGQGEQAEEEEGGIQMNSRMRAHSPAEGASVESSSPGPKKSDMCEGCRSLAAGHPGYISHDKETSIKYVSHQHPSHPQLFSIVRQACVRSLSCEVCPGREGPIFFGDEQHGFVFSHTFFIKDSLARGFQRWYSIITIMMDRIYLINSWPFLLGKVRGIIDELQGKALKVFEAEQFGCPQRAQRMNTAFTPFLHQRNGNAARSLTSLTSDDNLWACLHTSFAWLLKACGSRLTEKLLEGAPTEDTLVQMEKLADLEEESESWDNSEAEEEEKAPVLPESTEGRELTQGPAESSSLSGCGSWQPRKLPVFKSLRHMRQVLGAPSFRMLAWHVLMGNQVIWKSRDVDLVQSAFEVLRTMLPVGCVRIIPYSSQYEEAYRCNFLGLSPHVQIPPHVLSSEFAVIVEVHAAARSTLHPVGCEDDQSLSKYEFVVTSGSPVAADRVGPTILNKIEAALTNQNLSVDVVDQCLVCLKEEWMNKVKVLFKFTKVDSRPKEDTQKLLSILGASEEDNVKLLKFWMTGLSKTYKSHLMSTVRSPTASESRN
B7: Speckle-type POZ protein (Homo sapiens), O43791 (parent)
chain: B1 chain
partner: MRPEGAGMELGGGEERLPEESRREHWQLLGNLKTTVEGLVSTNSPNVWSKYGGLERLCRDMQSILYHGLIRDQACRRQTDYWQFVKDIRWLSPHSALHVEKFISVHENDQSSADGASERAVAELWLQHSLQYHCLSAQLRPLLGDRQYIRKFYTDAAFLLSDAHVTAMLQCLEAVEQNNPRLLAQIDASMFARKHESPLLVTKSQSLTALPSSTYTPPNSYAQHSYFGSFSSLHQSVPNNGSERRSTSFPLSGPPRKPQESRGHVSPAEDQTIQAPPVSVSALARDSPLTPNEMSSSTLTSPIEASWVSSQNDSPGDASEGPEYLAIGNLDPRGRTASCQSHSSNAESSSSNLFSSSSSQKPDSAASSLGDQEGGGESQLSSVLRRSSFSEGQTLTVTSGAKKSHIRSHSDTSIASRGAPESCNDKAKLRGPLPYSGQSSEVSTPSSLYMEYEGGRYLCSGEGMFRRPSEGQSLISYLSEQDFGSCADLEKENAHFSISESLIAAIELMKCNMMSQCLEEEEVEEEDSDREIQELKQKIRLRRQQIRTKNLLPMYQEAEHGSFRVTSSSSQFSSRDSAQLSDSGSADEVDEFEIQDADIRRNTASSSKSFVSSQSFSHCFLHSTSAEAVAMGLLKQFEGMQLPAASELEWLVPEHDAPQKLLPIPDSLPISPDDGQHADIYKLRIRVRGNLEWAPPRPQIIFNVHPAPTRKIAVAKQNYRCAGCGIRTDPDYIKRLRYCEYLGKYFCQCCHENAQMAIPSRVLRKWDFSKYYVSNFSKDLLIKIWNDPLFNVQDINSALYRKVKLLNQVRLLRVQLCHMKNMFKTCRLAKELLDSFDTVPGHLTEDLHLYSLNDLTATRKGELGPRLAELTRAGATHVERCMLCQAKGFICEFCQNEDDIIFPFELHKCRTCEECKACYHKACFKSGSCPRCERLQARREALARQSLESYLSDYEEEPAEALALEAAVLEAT

Variants of: B1
Details: with inhba_human INHBA

effect of a mutation on the interaction | Variant
with no effect | F133V

Variants of: B2
Details: with rasf1_human RASSF1, Q9NS23

effect of a mutation on the interaction | Variant
with no effect | Y87C

Variants of: B2
Details: with rasf1_human RASSF1, Q9NS23
Remark: another data set of the same source

effect of a mutation on the interaction | Variant
with no effect | F133V

Variants of: B2
Details: with rasf1_human RASSF1, Q9NS23
Remark: another data set of the same source

effect of a mutation on the interaction | Variant
with no effect | F133L

Variants of: B2
Details: with rasf1_human RASSF1, Q9NS23
Remark: another data set of the same source

effect of a mutation on the interaction | Variant
with no effect | F102C

Variants of: B3
Details: with ikkb_human IKBKB

effect of a mutation on the interaction | Variant
with no effect | F102C

Variants of: B3
Details: with ikkb_human IKBKB
Remark: another data set of the same source

effect of a mutation on the interaction | Variant
with no effect | F133V

Variants of: B3
Details: with ikkb_human IKBKB
Remark: another data set of the same source

effect of a mutation on the interaction | Variant
with no effect | F133L

Variants of: B3
Details: with ikkb_human IKBKB
Remark: another data set of the same source

effect of a mutation on the interaction | Variant
with no effect | Y87C

Variants of: B4
Details: with bglr_human GUSB

effect of a mutation on the interaction | Variant
with no effect | F133V

Variants of: B4
Details: with bglr_human GUSB
Remark: another data set of the same source

effect of a mutation on the interaction | Variant
with no effect | F133L

Variants of: B4
Details: with bglr_human GUSB
Remark: another data set of the same source

effect of a mutation on the interaction | Variant
with no effect | Y87C

Variants of: B4
Details: with bglr_human GUSB
Remark: another data set of the same source

effect of a mutation on the interaction | Variant
with no effect | F102C

Variants of: B5
Details: with lats2_human LATS2, Q9NRM7

effect of a mutation on the interaction | Variant
with no effect | F102C

Variants of: B5
Details: with lats2_human LATS2, Q9NRM7
Remark: another data set of the same source

effect of a mutation on the interaction | Variant
with no effect | Y87C

Variants of: B5
Details: with lats2_human LATS2, Q9NRM7
Remark: another data set of the same source

effect of a mutation on the interaction | Variant
with no effect | F133V

Variants of: B5
Details: with lats2_human LATS2, Q9NRM7
Remark: another data set of the same source

effect of a mutation on the interaction | Variant
with no effect | F133L

Variants of: B6
Details: with flcn_human FLCN

effect of a mutation on the interaction | Variant
with no effect | F133V

Variants of: B6
Details: with flcn_human FLCN
Remark: another data set of the same source

effect of a mutation on the interaction | Variant
with no effect | F133L

Variants of: B6
Details: with flcn_human FLCN
Remark: another data set of the same source

effect of a mutation on the interaction | Variant
with no effect | Y87C

Variants of: B7
Details: with rubic_human RUBCN

effect of a mutation on the interaction | Variant
with no effect | F102C

Variants of: B7
Details: with rubic_human RUBCN
Remark: another data set of the same source

effect of a mutation on the interaction | Variant
with no effect | F133V

Variants of: B7
Details: with rubic_human RUBCN
Remark: another data set of the same source

effect of a mutation on the interaction | Variant
with no effect | F133L
